# Assay: yeast display, Sf9 membrane polyspecificity reagent, FACS + sequencing; frameworks hold sequencing errors
# Method in brief: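 Galactose-induced (36–48 hours) yeast carrying a synthetic nanobody display library were exposed to 10% biotinylated, detergent-solubilized Sf9 membrane reagent at 4 °C for 1 hour. FACS followed streptavidin microbead enrichment, using low and high (top ~1%) gates for expression (anti-HA) and reagent binding (streptavidin). Colony PCR, MiSeq 2 × 250 sequencing and CDR-length filtering followed. Labels for polyreactivity reflect the gate of origin.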
row,Sequence,polyreactivity (PSR sort gate)
1,QVQLVESGGRLVQAGGSIRLSCAASGRTFYTNAMGWYRQAPGKERELVAAISSGGSTYYADSVKGRFTISRDNAKNTVYLQMNSLKPEDTAVYYCNVRRGGWGYRYYYWGQGTQVTVSS,high polyreactivity
2,QVQLVESGGRLVQAGGSIRLSCAASGSIFVQYAMGWYRPAPGKERELVAAIDFSDTSTYYADSVKGLFTISRDNAKITVYLQMNSLKPEDTAVYYCAAEEDSPSRSAIAVEEYLGQGTQVTVSS,low polyreactivity
3,QVQLVESGGRLVQAGGSLLLSCDASGSIFRHYAMGWYRQAPWQERELVAAISAIGGSTYADSVKGRFTISRDNAKNTVYLQMNSLIPEDTGVYYCNARSYTSYVYHEAGEFDYWGQGTQVTVSS,low polyreactivity
4,QVQLVESGGRLVQAGGSLRLRCAASGRTFYWNGMGWYRQSPGKERELVAAITVSVGSTYFADSVKGRFTISRDNAKNTVSLQMNSLKPEDTAVYYCNADAYYEARIWSYRKGDYWGQGTQVTVSS,low polyreactivity
5,QVQLVESGGRLVQAGGSLRLSCAASGFIFGFYAMGWYRQAPGKELELVAANSWSGGSTYYADSVKGRFTISRDKAKNTVFIQMNSLKPVDTAVYYCAAYFVYLDDAVTYDYWGQGTHVTVSS,low polyreactivity
6,QVQLVESGGRLVQAGGSLRLSCAASGFIIVFYDMGWYRQAPGKERELVAGITRNDGSTYYADSVKGRFKISRDNAKNTVYLQMNSLKPEDTAVYYCAADRVRRNDKLAYDYWGQGTQVTVSS,low polyreactivity
7,QVQLVESGGRLVQAGGSLRLSCAASGFTFDVYAMGWYRQAPGKERELVASITLRDGSTYYADSVKGRFTISRDNAKNTVYLQMNSLKPEDTAVYYCAADDSRATYEFEYWGQGTQVTVSS,low polyreactivity
8,QVQLVESGGRLVQAGGSLRLSCAASGFTFRYYAMGWYRQAPGKERELVAAINSGGSTNFADSVKGRFTISRDNAKNTVYLQMNSLKPEDTAVYYCAKRGRRGIVYLGSAEMDYWGQGTQVTVSS,low polyreactivity
9,QVQLVESGGRLVQAGGSLRLSCAASGFTFVYYAMGWYRQAPGKERELVAAVSWSGGTTYYADSVKGRFTISRDNAKNTVLLQMNSLKPEDTAVYYCNVYPAYNYFDYDYWGQGTQVTVSS,high polyreactivity
10,QVQLVESGGRLVQAGGSLRLSCAASGGTFVVYAMGWYSQARGKARELGAAITWIGDSTYYADSVKGRFTISRDNAKNTVYLQMNSLKPEDTAVYYCNAEGGYYLTEYGYWGQGTQETVSS,low polyreactivity
11,QVQLVESGGRLVQAGGSLRLSCAASGITFNVYAMGWYRQEPGKERELVAAITSSGATTYYADSVKGRFTISRDNAKNTVYLQMNSLKPEDTSVYYCAAKLSTRRYKYDYWGQGTQVTVSS,high polyreactivity
12,QVQLVESGGRLVQAGGSLRLSCAASGITFTAYAMGWYRPAPGKERELVATINSTGITNYADSVKGRFTISRDNAKNTVYLQMNSLKPEDTAVYYCAADLLDISSYDGMDYWGQGTQVTVSS,low polyreactivity
13,QVQLVESGGRLVQAGGSLRLSCAASGLIFAWYAMGWYRQAPGKQRELVATISWNGDRTYYADSVKVRFTISRDNAKNTVYLQMNSVKPVDSAVYYCAARFGSGFNYWGQGNQVTVSS,high polyreactivity
14,QVQLVESGGRLVQAGGSLRLSCAASGRIFALNAMGWYRQAPGKERELVAAITWGGGSTYYADSVKGRFTISRDNAKNTVYLQMNSLKPVDTAVYYCAARYVFWPYWISGDSWGQGTQVTVSS,low polyreactivity
15,QVQLVESGGRLVQAGGSLRLSCAASGRIFGYYAMGRYRQAPGKERQLVAAITSGGSTYYADSVKGRFTISRDNATNTVYLQMHSLKPEDTADYYCNARYWGRTKVYYWGQGTQVTVSS,high polyreactivity
16,QVQLVESGGRLVQAGGSLRLSCAASGRIFTGYAMGWYRQAPGKERELVAAISSRGGSTYYADYVKVRFTISRDNAKNTVYLQMNSLKPEDTAVYYCNAYQWRHRYTMYYWGQGTQVTVSS,high polyreactivity
17,QVQLVESGGRLVQAGGSLRLSCAASGRISWSYAMGWYRQAPGKERELVAAITSGGTTNYADSVKGRFTISRDNAKNTVYLQMNSLKPEDTAVYYCARDSYQLGLIRDPLEYDYWGQGTQVTVSS,low polyreactivity
18,QVQLVESGGRLVQAGGSLRLSCAASGRTFEIYSMGRYRHAPGKERELVAAITSGGSTYYADSVKGRFTISRDNAKNTVYLQMNSLKPEDTAVYYCNAYLYYDAHGVDYWGQGTQVTVSS,high polyreactivity
19,QVQLVESGGRLVQAGGSLRLSCAASGRTFHKNAMGWYRQAPGKERELVAAISGSGGSTYYADSVKGRFTISRDNAKNTVYLQMNSLKPEDTAVYYCAADSSYYEEDYWGQGTHVTVSS,high polyreactivity
20,QVQLVESGGRLVQAGGSLRLSCAASGRTFLVNDMGWYRQAPGKERELVAAINYNAGSTFYADSVKGRFTISRDIAKNTVYLQMNSLKPEDTAVYYCATDVYGYVEYDYWGQGTQVTVSS,low polyreactivity
21,QVQLVESGGRLVQAGGSLRLSCAASGRTFQSYAMGWYRQAPGKERELVAAITITGGRTYYADSVKGRFTISRDNAKNTVYLQMNSLKPEDTAVYYCAAEEYSHYTLGYDYWGQGTQVTVSS,low polyreactivity

row,Sequence,polyreactivity (PSR sort gate)
1,QVQLVESGGRLVQAGGSLRLSCAASGRTFRAYVMGWYRQSPGKERELVAAISSSGGRTYYADSVKGRFTISRDNAKNTVYLQMNSLKPEDTAVYYCAAQAVRGGIGEDDYWGQGTQVTVSS,high polyreactivity
2,QVQLVESGGRLVQAGGSLRLSCAASGRTFRGYAMGWYRQAPGKEREWVAAISSGGSTYYADSVKGRFTISRDNAKNTVYFQMNSLKPEDTAVSYCDRAVGNYRTLEFDYWGQGTQVTVSS,low polyreactivity
3,QVQLVESGGRLVQAGGSLRLSCAASGRTFSTNVMGRYRQAPGKVRELVAAITTSSSRTYYADSVKGRFTISRDNAKNTVYLQMNSLKPEDTAVYYCAAGIHGSWSFDYWGQGTQVTLSS,low polyreactivity
4,QVQLVESGGRLVQAGGSLRLSCAASGRTFTAYTMGGYRQAPGKERELVASNSSGVTYADSVKGRFTISRDNAKNTVYLQMNSLKPEDTAVYYCAARLWYVQGYVPYVHHRFDYWGQGTQVTVSS,low polyreactivity
5,QVQLVESGGRLVQAGGSLRLSCAASGRTFVTNAMGWYRQAPGQERELVAAISSNGGSTYYADSVKGRFTISRDNAKNTVYLQMNSLKPEDTAVYYCNAEGQPLYVSWHDHRYIYGFDYWGQGTQVTVSS,low polyreactivity
6,QVQLVESGGRLVQAGGSLRLSCAASGRTSVVHAMGWYRTAPGKERELVAAITSGGSTHYPDSVKGRFTISRDNAKNTVYLQMNSLKPEDTAVYYCNARDRRRTNLQDYWGQGTQVTVSS,low polyreactivity
7,QVQLVESGGRLVQAGGSLRLSCAASGSIFLAYAMGWYRQAPGKEREFVAAISFSDGSTYYADSVKGRFTISRDNAKNTVYLQMNSLKPEDTAVYYCNKGASPDDYDYWGQGTQVTVSS,low polyreactivity
8,QVQLVESGGRLVQAGGSLRLSCAASGSIFRANAMVWYRQAPGNERELVAAISPNGGSTYYADSVKGRFTISRDHAKNTVYLQMNSLKPEDTAVYYCNTDHRNIWFRFKYDYWGQGTQVTVSS,high polyreactivity
9,QVQLVESGGRLVQAGGSLRLSCAASGSIFRSYAMAWYRPAPGKERELVAGISYSGGSTYYADSVKGRFTISRDNAKNTVYLQMNSLKPEDTAVYYCNVDGGTYFFFVGAWGEYDYWGQGTQVTVSS,low polyreactivity
10,QVQLVESGGRLVQAGGSLRLSCAASGSIIVYNTMGWYRQAPGKERELVAAITVRDDSTYYADSVKGRFTISRDNAKNTVYLQMNSLKPEDTAVYYCNARGNFLIGRDYWGQGTQVTVSS,low polyreactivity
11,QVQLVESGGRLVQAGGSLRLSCAASGSTFGRYVMGWYRQTPGKERELVAAISYSGGRTYYADSVKLRFTISRDNAKNTVYLQMNSLNPEDTAVFYCATRVTLTRWLYDYWGQGSQVTVSS,high polyreactivity
12,QVQLVESGGRLVQAGGSLRLSCAASGSTFNRYAMGWYRQAPGKERELVAAISRGGSTTYADSVKGRFTISRDNAKHTVYLQMYSLKPEDTAVYYCAALYYSPRYWYDYWGLGTQVTVSS,high polyreactivity
13,QVQLVESGGRLVQAGGSLRLSCAASGSTFSRNARGWNRQAPGKERELVAAISRSSSRTYYADSVKGRFTISRDNAKNTVYLQMNSLKPEDTAVYYCAADGYVWTPYLYDYWGQGTQVTVSS,high polyreactivity
14,QVQLVESGGRLVQAGGSLRLSCAASGSTFTYNAMGWYRQAPGKESELVASISSGTTTYYADSVKGRFTISRDNAKNTVYVQMNSLKPEDTAVYYCAFDSWSRVQGWLAHNYDYWGQGTQVTVSS,low polyreactivity
15,QVQLVESGGRLVQAGGSLRLSCAASGSTFYDYAMGWYRQAPGKERELVASIDSGDSTNYADSVKGRFTISRDNAKNTVYLQMNSLKPEDTAVYYCAADYRAPLDYWGQGTQVTVSS,low polyreactivity
16,QVQLVESGGRLVQAGGSLRLSCAASGSTIVRNGMGWYRQAPGKERELVAAITRGGSTYYADSVKGRFTISRDNAKNTVYLQMNSLKPEDTAVYYCATYDPARSTQGYDYWGQGTQVTVSS,high polyreactivity
17,QVQLVESGGRLVQAGGSLRLSCAASGSTIYPNAMGWSRQAPGKERELVAAISRGTRTKYADSVKGRFTISRDNAKNTVYVQMNSLKPEDTAVYYCAADTGTGLDWGQGTQGTVSS,high polyreactivity
18,QVQLVESGGRLVQAGGSLRLSCAASGSTVGYNALGWYRQAPGKASELVAAITSRGSTNYADSVKGRFTISRDNAKNTVYLQMNSLKPEVTAVYYCAKATSSSEYGYDYWGQGTQVTVSS,high polyreactivity
19,QVQLVESGGRLVQAGGSLRLSCAASGSTYAMGWYRQAPGKERELVASITSRGGSTYYADSVKGRFTISRDNAKNTVYLQMNSLKPEDTAVYYCAARWYFSYIGYDYWGQGTQVTVSS,high polyreactivity
20,QVQLVESGGRLVQAGGSLRLSCAASGYIFSRNAMGSYRQAPGKERELVATISRGGSTYYGDSVKGRFTISRDNDKNTVYLQMNSLKPEDTAVYFCAATVVYWRSKSSVRRYDYWGQGTQVTVSS,high polyreactivity

# Source: the nanobody polyreactivity screen of Harvey et al. (2022)
